± gives the uncertainty stated by the source.
Assay: abundance fitness (aPCA) (normalised: wild type 0, dead -1); higher = more abundant; growth selection in yeast, the domain comes from the species named
Details: Homo sapiens

Substance | abundance fitness
DnaJ homolog subfamily B member 1 Q7R, P25685 | -0.185 ± 0.071
DnaJ homolog subfamily B member 1 Q7S, P25685 | -0.286 ± 0.081
DnaJ homolog subfamily B member 1 Q7T, P25685 | -0.008 ± 0.078
DnaJ homolog subfamily B member 1 Q7V, P25685 | -0.307 ± 0.087
DnaJ homolog subfamily B member 1 Q7W, P25685 | -0.207 ± 0.15
DnaJ homolog subfamily B member 1 Q7Y, P25685 | 0.022 ± 0.13
DnaJ homolog subfamily B member 1 Q27A, P25685 | -0.15 ± 0.11
DnaJ homolog subfamily B member 1 Q27C, P25685 | 0.012 ± 0.14
DnaJ homolog subfamily B member 1 Q27D, P25685 | 0.003 ± 0.15
DnaJ homolog subfamily B member 1 Q27E, P25685 | -0.231 ± 0.36
DnaJ homolog subfamily B member 1 Q27F, P25685 | -0.115 ± 0.13
DnaJ homolog subfamily B member 1 Q27G, P25685 | -0.277 ± 0.093
DnaJ homolog subfamily B member 1 Q27H, P25685 | -0.168 ± 0.18
DnaJ homolog subfamily B member 1 Q27I, P25685 | -0.057 ± 0.12
DnaJ homolog subfamily B member 1 Q27K, P25685 | -0.021 ± 0.17
DnaJ homolog subfamily B member 1 Q27L, P25685 | -0.121 ± 0.094
DnaJ homolog subfamily B member 1 Q27M, P25685 | -0.054 ± 0.14
DnaJ homolog subfamily B member 1 Q27N, P25685 | -0.14 ± 0.12
DnaJ homolog subfamily B member 1 Q27R, P25685 | -0.215 ± 0.066
DnaJ homolog subfamily B member 1 Q27T, P25685 | -0.266 ± 0.12
DnaJ homolog subfamily B member 1 Q27W, P25685 | -0.064 ± 0.098

Substance | abundance fitness
DnaJ homolog subfamily B member 1 Q27Y, P25685 | -0.056 ± 0.28
DnaJ homolog subfamily B member 1 R13A, P25685 | -0.148 ± 0.081
DnaJ homolog subfamily B member 1 R13C, P25685 | -0.262 ± 0.12
DnaJ homolog subfamily B member 1 R13D, P25685 | -0.117 ± 0.22
DnaJ homolog subfamily B member 1 R13E, P25685 | -0.142 ± 0.089
DnaJ homolog subfamily B member 1 R13F, P25685 | -0.15 ± 0.1
DnaJ homolog subfamily B member 1 R13G, P25685 | -0.305 ± 0.064
DnaJ homolog subfamily B member 1 R13H, P25685 | -0.191 ± 0.16
DnaJ homolog subfamily B member 1 R13I, P25685 | -0.221 ± 0.15
DnaJ homolog subfamily B member 1 R13K, P25685 | -0.097 ± 0.089
DnaJ homolog subfamily B member 1 R13L, P25685 | -0.191 ± 0.066
DnaJ homolog subfamily B member 1 R13M, P25685 | -0.219 ± 0.092
DnaJ homolog subfamily B member 1 R13N, P25685 | -0.091 ± 0.11
DnaJ homolog subfamily B member 1 R13P, P25685 | -0.177 ± 0.088
DnaJ homolog subfamily B member 1 R13Q, P25685 | 0.048 ± 0.2
DnaJ homolog subfamily B member 1 R13S, P25685 | -0.182 ± 0.056
DnaJ homolog subfamily B member 1 R13T, P25685 | -0.138 ± 0.089
DnaJ homolog subfamily B member 1 R13V, P25685 | -0.157 ± 0.065
DnaJ homolog subfamily B member 1 R13W, P25685 | -0.434 ± 0.08
DnaJ homolog subfamily B member 1 R13Y, P25685 | -0.279 ± 0.091

— the Human Domainome abundance scans (Beltran et al. 2025)
